Blank lines part the entries; values can stand above or below the binder they belong to.
Columns and labels:
Assay in all cases: two-hybrid library CCmax;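 note: natural log of median RNA to DNA barcode read ratio; higher means stronger binding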
APC3881-AA = molecular target: T1, APC3881-AA; conditions: mean of both orientations
T1 chain: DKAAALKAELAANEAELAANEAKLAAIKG

APC542-AA = molecular target: T2, APC542-AA; conditions: mean of both orientations
T2 chain: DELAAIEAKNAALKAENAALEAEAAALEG

APC2981-AA = molecular target: T3, APC2981-AA; conditions: mean of both orientations
T3 chain: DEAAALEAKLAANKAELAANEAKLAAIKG

APC5531-AA = molecular target: T4, APC5531-AA; conditions: mean of both orientations
T4 chain: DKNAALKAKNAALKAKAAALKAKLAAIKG

APC8401-AA = molecular target: T5, APC8401-AA; conditions: mean of both orientations
T5 chain: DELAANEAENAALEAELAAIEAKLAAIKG

APC9806-AA = molecular target: T6, APC9806-AA; conditions: mean of both orientations
T6 chain: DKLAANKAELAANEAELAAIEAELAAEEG

APC7524-AA = molecular target: T7, APC7524-AA; conditions: mean of both orientations
T7 chain: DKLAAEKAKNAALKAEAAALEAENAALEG

APC2811-AA = molecular target: T8, APC2811-AA; conditions: mean of both orientations
T8 chain: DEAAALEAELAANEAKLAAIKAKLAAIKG

APC9182-AA = molecular target: T9, APC9182-AA; conditions: mean of both orientations
T9 chain: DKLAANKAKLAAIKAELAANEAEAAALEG

APC2556-AA = molecular target: T10, APC2556-AA; conditions: mean of both orientations
T10 chain: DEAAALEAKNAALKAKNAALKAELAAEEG

APC2257-AA = molecular target: T11, APC2257-AA
T11 chain: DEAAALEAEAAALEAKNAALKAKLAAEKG

APC5009-AA = molecular target: T12, APC5009-AA; conditions: mean of both orientations
T12 chain: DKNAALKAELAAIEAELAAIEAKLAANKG

APC3265-AA = molecular target: T13, APC3265-AA
T13 chain: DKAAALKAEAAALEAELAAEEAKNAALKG

APC4336-AA = molecular target: T14, APC4336-AA; conditions: mean of both orientations
T14 chain: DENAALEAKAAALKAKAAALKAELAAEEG

APC9291-AA = molecular target: T15, APC9291-AA; conditions: mean of both orientations
T15 chain: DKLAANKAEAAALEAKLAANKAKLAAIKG

APC2543-AA = molecular target: T16, APC2543-AA; conditions: mean of both orientations
T16 chain: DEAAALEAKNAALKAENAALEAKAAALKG

APC2724-AA = molecular target: T17, APC2724-AA; conditions: mean of both orientations
T17 chain: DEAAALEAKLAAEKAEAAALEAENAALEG

APC6088-AA = molecular target: T18, APC6088-AA; conditions: mean of both orientations
T18 chain: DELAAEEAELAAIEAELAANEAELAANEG

APC8516-AA = molecular target: T19, APC8516-AA; conditions: mean of both orientations
T19 chain: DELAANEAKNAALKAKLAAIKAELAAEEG

APC2375-AA = molecular target: T20, APC2375-AA; conditions: mean of both orientations
T20 chain: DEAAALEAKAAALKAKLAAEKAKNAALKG

APC9141-AA = molecular target: T21, APC9141-AA; conditions: mean of both orientations
T21 chain: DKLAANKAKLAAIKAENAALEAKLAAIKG

APC2474-AA = molecular target: T22, APC2474-AA; conditions: mean of both orientations
T22 chain: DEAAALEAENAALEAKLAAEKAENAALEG

APC3354-AA = molecular target: T23, APC3354-AA; conditions: mean of both orientations
T23 chain: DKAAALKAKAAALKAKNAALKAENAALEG

APC4100-AA = molecular target: T24, APC4100-AA; conditions: mean of both orientations
T24 chain: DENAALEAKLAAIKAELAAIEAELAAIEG

APC3323-AA = molecular target: T25, APC3323-AA; conditions: mean of both orientations
T25 chain: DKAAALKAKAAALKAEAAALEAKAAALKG

4H3066-AA = molecular target: T26, 4H3066-AA; conditions: mean of both orientations
T26 chain: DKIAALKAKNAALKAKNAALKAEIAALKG

4H3591-AA = molecular target: T27, 4H3591-AA; conditions: mean of both orientations
T27 chain: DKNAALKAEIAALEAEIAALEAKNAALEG

4H478-AA = molecular target: T28, 4H478-AA; conditions: mean of both orientations
T28 chain: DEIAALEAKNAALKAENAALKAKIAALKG

4H391-AA = molecular target: T29, 4H391-AA; conditions: mean of both orientations
T29 chain: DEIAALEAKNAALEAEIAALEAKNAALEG

4H3939-AA = molecular target: T30, 4H3939-AA; conditions: mean of both orientations
T30 chain: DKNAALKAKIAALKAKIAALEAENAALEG

4H2991-AA = molecular target: T31, 4H2991-AA; conditions: mean of both orientations
T31 chain: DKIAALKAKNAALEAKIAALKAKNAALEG

4H2713-AA = molecular target: T32, 4H2713-AA; conditions: mean of both orientations
T32 chain: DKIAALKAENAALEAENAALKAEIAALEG

4H2283-AA = molecular target: T33, 4H2283-AA; conditions: mean of both orientations
T33 chain: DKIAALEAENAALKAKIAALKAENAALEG

4H189-AA = molecular target: T34, 4H189-AA
T34 chain: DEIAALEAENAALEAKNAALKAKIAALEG

4H2948-AA = molecular target: T35, 4H2948-AA; conditions: mean of both orientations
T35 chain: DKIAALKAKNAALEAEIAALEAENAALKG

4H3709-AA = molecular target: T36, 4H3709-AA; conditions: mean of both orientations
T36 chain: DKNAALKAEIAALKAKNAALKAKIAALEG

4H428-AA = molecular target: T37, 4H428-AA; conditions: mean of both orientations
T37 chain: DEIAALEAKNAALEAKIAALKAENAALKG

4H3417-AA = molecular target: T38, 4H3417-AA; conditions: mean of both orientations
T38 chain: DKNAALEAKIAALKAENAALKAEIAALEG

4H146-AA = molecular target: T39, 4H146-AA
T39 chain: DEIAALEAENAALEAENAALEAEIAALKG

4H3920-AA = molecular target: T40, 4H3920-AA; conditions: mean of both orientations
T40 chain: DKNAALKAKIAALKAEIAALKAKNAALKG

4H1809-AA = molecular target: T41, 4H1809-AA; conditions: mean of both orientations
T41 chain: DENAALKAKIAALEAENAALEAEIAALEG

4H971-AA = molecular target: T42, 4H971-AA
T42 chain: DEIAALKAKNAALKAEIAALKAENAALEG

4H3121-AA = molecular target: T43, 4H3121-AA; conditions: mean of both orientations
T43 chain: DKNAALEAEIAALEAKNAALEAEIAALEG

4H1854-AA = molecular target: T44, 4H1854-AA; conditions: mean of both orientations
T44 chain: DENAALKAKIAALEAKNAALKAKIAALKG

4H3029-AA = molecular target: T45, 4H3029-AA; conditions: mean of both orientations
T45 chain: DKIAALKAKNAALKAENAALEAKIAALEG

4H2742-AA = molecular target: T46, 4H2742-AA; conditions: mean of both orientations
T46 chain: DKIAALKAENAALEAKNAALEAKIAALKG

4H2248-AA = molecular target: T47, 4H2248-AA; conditions: mean of both orientations
T47 chain: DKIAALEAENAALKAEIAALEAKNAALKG

4H3446-AA = molecular target: T48, 4H3446-AA; conditions: mean of both orientations
T48 chain: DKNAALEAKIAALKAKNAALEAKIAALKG

4H3102-AA = molecular target: T49, 4H3102-AA; conditions: mean of both orientations
T49 chain: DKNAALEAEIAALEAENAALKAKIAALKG

4H3666-AA = molecular target: T50, 4H3666-AA; conditions: mean of both orientations
T50 chain: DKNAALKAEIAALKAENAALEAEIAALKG

4H1348-AA = molecular target: T51, 4H1348-AA
T51 chain: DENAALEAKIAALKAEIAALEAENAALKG

4H1391-AA = molecular target: T52, 4H1391-AA; conditions: mean of both orientations
T52 chain: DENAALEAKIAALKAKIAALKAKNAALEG

4H675-AA = molecular target: T53, 4H675-AA; conditions: mean of both orientations
T53 chain: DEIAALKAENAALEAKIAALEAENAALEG

4H656-AA = molecular target: T54, 4H656-AA; conditions: mean of both orientations
T54 chain: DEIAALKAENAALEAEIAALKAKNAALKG

4H3628-AA = molecular target: T55, 4H3628-AA; conditions: mean of both orientations
T55 chain: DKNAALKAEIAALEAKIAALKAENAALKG

4H497-AA = molecular target: T56, 4H497-AA; conditions: mean of both orientations
T56 chain: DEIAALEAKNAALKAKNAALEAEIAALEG

- interaction score (APC3881-AA): -1.31
- interaction score (APC542-AA): -1.54
- interaction score (APC2981-AA): -1.18
- interaction score (APC5531-AA): -1.97
- interaction score (APC8401-AA): -1.32
- interaction score (APC9806-AA): -1.79
- interaction score (APC7524-AA): -1.59
- interaction score (APC2811-AA): 1.49
- interaction score (APC9182-AA): -1.86
- interaction score (APC2556-AA): -1.99
- interaction score (APC2257-AA): -1.12
- interaction score (APC5009-AA): -1.07
- interaction score (APC3265-AA): -1.43
- interaction score (APC4336-AA): -1.71
- interaction score (APC9291-AA): -1.61
- interaction score (APC2543-AA): -1.02
- interaction score (APC2724-AA): -1.47
- interaction score (APC6088-AA): -1.24
- interaction score (APC8516-AA): -1.64
- interaction score (APC2375-AA): -1.42
- interaction score (APC9141-AA): -1.37
- interaction score (APC2474-AA): -1.46
- interaction score (APC3354-AA): -1.45
- interaction score (APC4100-AA): -1.56
- interaction score (APC3323-AA): -1.58
Binder: DEAAALEAEAAALEAKNAALKAKLAAEKG [APC2257-AA]

- interaction score (4H3066-AA): -2.16
- interaction score (4H3591-AA): 0.665
- interaction score (4H478-AA): 0.507
- interaction score (4H391-AA): -1.94
- interaction score (4H3939-AA): 0.262
- interaction score (4H2991-AA): -1.75
- interaction score (4H2713-AA): -1.2
- interaction score (4H2283-AA): -1.14
- interaction score (4H189-AA): -1.2
- interaction score (4H2948-AA): -1.13
- interaction score (4H3709-AA): -1.57
- interaction score (4H428-AA): -0.542
- interaction score (4H3417-AA): -1.13
- interaction score (4H146-AA): -2.73
- interaction score (4H3920-AA): 1.37
- interaction score (4H1809-AA): -1.86
- interaction score (4H971-AA): -1.78
- interaction score (4H3121-AA): -1.43
- interaction score (4H1854-AA): -1.01
- interaction score (4H3029-AA): -1.57
- interaction score (4H2742-AA): -1.31
- interaction score (4H2248-AA): -1.37
- interaction score (4H3446-AA): -1.25
- interaction score (4H3102-AA): -1.34
- interaction score (4H3666-AA): -1.46
- interaction score (4H1348-AA): 1.56
- interaction score (4H1391-AA): -0.755
- interaction score (4H675-AA): -1.36
- interaction score (4H656-AA): -0.833
- interaction score (4H3628-AA): 2.05
- interaction score (4H497-AA): -2.02
Binder: DENAALEAKIAALKAEIAALEAENAALKG [4H1348-AA]
